Experimental data reported in patent US20260167721A1 (ABLEXIS, published 2026).

Experiments:
[1] = molecular target: T1, recombinant CD3 proteins (UniProt P07766 23-126); experiment: Octet BLI, recombinant CD3; Full R^2 0.9991
T1 construct: elsewhere it uses human CD3 E/D and E/G heterodimers

[2] = molecular target: T1, recombinant CD3 proteins; experiment: Octet BLI, recombinant CD3; Full R^2 0.9554

T1 sequence (P07766 23-126): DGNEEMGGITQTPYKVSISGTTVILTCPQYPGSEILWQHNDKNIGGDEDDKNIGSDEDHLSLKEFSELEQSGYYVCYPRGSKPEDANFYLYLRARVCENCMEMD

| Kd [1] [nM] | koff [1] [s⁻¹] | kon [1] [M⁻¹ s⁻¹] | Kd [2] [nM] | koff [2] [s⁻¹] | kon [2] [M⁻¹ s⁻¹] | Binder |
| --- | --- | --- | --- | --- | --- | --- |
| 276 | 0.0854 | 309000 |  |  |  | CD3 × CD33-BspAb97 (bispecific antibody) chain 1: SYELTQPPSVSVSPGQTARITCSGDALPKKYAYWYQQKSGQAPVLVIYEDSKRPSGIPERFSGSSSGTMATLTISGAQVEDEADYYCYSTDSSGNHWVFGCGTKLTVLGGGGSGGGGSGGGGSGGGGSEVQLVESGGGLVKPGGSLRLSCAASGFTFSNYYMNWVRQAPGKCLERVSSISSSSNYIYYADSVKGRFTISRDNAKNSLYLQMNSLRAEDTAVYYCARDRRELPLDYWGQGTVVTVSSDKTHTCPPCPAPEFEGGPSVFLFPPKPKDTLMISRTPEVTCVVVDVSHEDPEVKFNWYVDGVEVHNAKTKPREEQYNSTYRVVSVLTVLHQDWLNGKEYKCKVSNKALPASIEKTISKAKGQPREPQVYTLPPCREEMTKNQVSLWCLVKGFYPSDIAVEWESNGQPENNYKTTPPVLDSDGSFFLYSKLTVDKSRWQQGNVFSCSVMHEALHNHYTQKSLSLSPGK chain 2: EVQLVQSGAEVKKPGSSVKVSCKASGYTITDSNIHWVRQAPGQSLEWIGYIYPYNGGTDYNQKFKNRATLTVDNPTNTAYMELSSLRSEDTAFYYCVNGNPWLAYWGQGTLVTVSSASTKGPSVFPLAPSSKSTSGGTAALGCLVKDYFPEPVTVSWNSGALTSGVHTFPAVLQSSGLYSLSSVVTVPSSSLGTQTYICNVNHKPSNTKVDKRVEPKSCDKTHTCPPCPAPEFEGGPSVFLFPPKPKDTLMISRTPEVTCVVVDVSHEDPEVKFNWYVDGVEVHNAKTKPREEQYNSTYRVVSVLTVLHQDWLNGKEYKCKVSNKALPASIEKTISKAKGQPREPQVCTLPPSREEMTKNQVSLSCAVKGFYPSDIAVEWESNGQPENNYKTTPPVLDSDGSFFLVSKLTVDKSRWQQGNVFSCSVMHEALHNRFTQKSLSLSPGK chain 3: DIQLTQSPSTLSASVGDRVTITCRASESLDNYGIRFLTWFQQKPGKAPKLLMYAASNQGSGVPSRFSGSGSGTEFTLTISSLQPDDFATYYCQQTKEVPWSFGQGTKVEVKRTVAAPSVFIFPPSDEQLKSGTASVVCLLNNFYPREAKVQWKVDNALQSGNSQESVTEQDSKDSTYSLSSTLTLSKADYEKHKVYACEVTHQGLSSPVTKSFNRGEC |
|  |  |  | 5.1 | 0.00333 | 653000 | CD3 × CD33-BspAb98 (bispecific antibody) chain 1: NFMLTQPHSVSESPGKTVTISCTRSSGSIASNYVQWYQQRPGSSPTTVIYEDNQRPSGVPDRFSGSIDSSSNSASLTISGLKTEDEADYYCQSYDSSNRVFGCGTKLTVLGGGGSGGGGSGGGGSGGGGSEVHLVESGGGLVKPGGSLRLSCAASGFTFSRYSMNWVRQAPGKCLEWVSSISRSSSYIYYADSVKGRFTISRDNAKNSLYLQMNSLRAEDTAVYYCAREPRTLGMDYWGQGILVTVSSDKTHTCPPCPAPEFEGGPSVFLFPPKPKDTLMISRTPEVTCVVVDVSHEDPEVKFNWYVDGVEVHNAKTKPREEQYNSTYRVVSVLTVLHQDWLNGKEYKCKVSNKALPASIEKTISKAKGQPREPQVYTLPPCREEMTKNQVSLWCLVKGFYPSDIAVEWESNGQPENNYKTTPPVLDSDGSFFLYSKLTVDKSRWQQGNVFSCSVMHEALHNHYTQKSLSLSPGK chain 2: EVQLVQSGAEVKKPGSSVKVSCKASGYTITDSNIHWVRQAPGQSLEWIGYIYPYNGGTDYNQKFKNRATLTVDNPTNTAYMELSSLRSEDTAFYYCVNGNPWLAYWGQGTLVTVSSASTKGPSVFPLAPSSKSTSGGTAALGCLVKDYFPEPVTVSWNSGALTSGVHTFPAVLQSSGLYSLSSVVTVPSSSLGTQTYICNVNHKPSNTKVDKRVEPKSCDKTHTCPPCPAPEFEGGPSVFLFPPKPKDTLMISRTPEVTCVVVDVSHEDPEVKFNWYVDGVEVHNAKTKPREEQYNSTYRVVSVLTVLHQDWLNGKEYKCKVSNKALPASIEKTISKAKGQPREPQVCTLPPSREEMTKNQVSLSCAVKGFYPSDIAVEWESNGQPENNYKTTPPVLDSDGSFFLVSKLTVDKSRWQQGNVFSCSVMHEALHNRFTQKSLSLSPGK chain 3: DIQLTQSPSTLSASVGDRVTITCRASESLDNYGIRFLTWFQQKPGKAPKLLMYAASNQGSGVPSRFSGSGSGTEFTLTISSLQPDDFATYYCQQTKEVPWSFGQGTKVEVKRTVAAPSVFIFPPSDEQLKSGTASVVCLLNNFYPREAKVQWKVDNALQSGNSQESVTEQDSKDSTYSLSSTLTLSKADYEKHKVYACEVTHQGLSSPVTKSFNRGEC |
